Test [1] concerns the target MICA alpha-3 domain of MICA*001 (Homo sapiens, allele MICA*001, UniProt Q29983, strain). In words: crystal structure.
Test [2] has as its target MICA*001 extracellular domain (Homo sapiens, allele MICA*001, UniProt Q29983). In words: ELISA.
In test [3] the target is MICA*002 extracellular domain (Homo sapiens, allele MICA*002 (stand-in …, UniProt Q29983)). In words: ELISA.
Test [4] deals with MICB*004 extracellular domain (Homo sapiens, allele MICB*004, UniProt Q29980). In words: BLI.

B1: Fab fragment of CLN-619 (Fab, V domains shown)
VH: QVQLVESGGGLVKPGGSLRLSCAASGFTFSNYAMSWIRQAPGKGLEWVSYISPGGDYIYYADSVKGRFTISRDNAKNSLYLQMNSLRAEDTAVYYCTTDRRHYGSYAMDYWGQGTLVTVSS
VL: DIVMTQSPLSLPVTPGEPASISCRSSKSLLHSNLNTYLYWFLQKPGQSPQILIYRMSNLASGVPDRFSGSGSGTAFTLKISRVEAEDVGVYYCMQHLEYPFTFGPGTKLEIK
For B1, in test [1], the binding result was “binds”.

B2: CLN-619, humanized IgG1 monoclonal antibody against MICA/B (antibody, V domains shown)
VH: B1 VH
VL: B1 VL
As to B2, the binding result in test [2] and in test [3] was “binds” throughout. In test [4], binding was put at a Kd of 11.4 nM.

The record behind these values is article PMC12020772 (Journal for Immunotherapy of Cancer, 2025).
